{"source": "paper PMC5384083", "parents": {"B1": {"name": "T7 tagged FoxM1 wild type (WT) [not stated] / DNMT3b, endogenous [human (endogenous in MCF7 and MDA-MB-453)] (parent)", "chain 1": "MKTSPRRPLILKRRRLPLPVQNAPSETSEEEPKRSPAQQESNQAEASKEVAESNSCKFPAGIKIINHPTMPNTQVVAIPNNANIHSIITALTAKGKESGSSGPNKFILISCGGAPTQPPGLRPQTQTSYDAKRTEVTLETLGPKPAARDVNLPRPPGALCEQKRETCADGEAAGCTINNSLSNIQWLRKMSSDGLGSRSIKQEMEEKENCHLEQRQVKVEEPSRPSASWQNSVSERPPYSYMAMIQFAINSTERKRMTLKDIYTWIEDHFPYFKHIAKPGWKNSIRHNLSLHDMFVRETSANGKVSFWTIHPSANRYLTLDQVFKQQKRPNPELRRNMTIKTELPLGARRKMKPLLPRVSSYLVPIQFPVNQSLVLQPSVKVPLPLAASLMSSELARHSKRVRIAPKVLLAEEGIAPLSSAGPGKEEKLLFGEGFSPLLPVQTIKEEEIQPGEEMPHLARPIKVESPPLEEWPSPAPSFKEESSHSWEDSSQSPTPRPKKSYSGLRSPTRCVSEMLVIQHRERRERSRSRRKQHLLPPCVDEPELLFSEGPSTSRWAAELPFPADSSDPASQLSYSQEVGGPFKTPIKETLPISSTPSKSVLPRTPESWRLTPPAKVGGLDFSPVQTSQGASDPLPDPLGLMDLSTTPLQSAPPLESPQRLLSSEPLDLISVPFGNSSPSDIDVPKPGSPEPQVSGLAANRSLTEGLVLDTMNDSLSKILLDISFPGLDEDPLGPDNINWSQFIPELQ", "chain 2": "not shown"}, "B2": {"name": "T7 tagged FoxM1 wild type (WT) [not stated] / Retinoblastoma protein (Rb), endogenous [human (endogenous in MCF7 and MDA-MB-453)] (parent)", "chain 1": "B1 chain 1", "chain 2": "MPPKTPRKTAATAAAAAAEPPAPPPPPPPEEDPEQDSGPEDLPLVRLEFEETEEPDFTALCQKLKIPDHVRERAWLTWEKVSSVDGVLGGYIQKKKELWGICIFIAAVDLDEMSFTFTELQKNIEISVHKFFNLLKEIDTSTKVDNAMSRLLKKYDVLFALFSKLERTCELIYLTQPSSSISTEINSALVLKVSWITFLLAKGEVLQMEDDLVISFQLMLCVLDYFIKLSPPMLLKEPYKTAVIPINGSPRTPRRGQNRSARIAKQLENDTRIIEVLCKEHECNIDEVKNVYFKNFIPFMNSLGLVTSNGLPEVENLSKRYEEIYLKNKDLDARLFLDHDKTLQTDSIDSFETQRTPRKSNLDEEVNVIPPHTPVRTVMNTIQQLMMILNSASDQPSENLISYFNNCTVNPKESILKRVKDIGYIFKEKFAKAVGQGCVEIGSQRYKLGVRLYYRVMESMLKSEEERLSIQNFSKLLNDNIFHMSLLACALEVVMATYSRSTSQNLDSGTDLSFPWILNVLNLKAFDFYKVIESFIKAEGNLTREMIKHLERCEHRIMESLAWLSDSPLFDLIKQSKDREGPTDHLESACPLNLPLQNNHTAADMYLSPVRSPKKKGSTTRVNSTANAETQATSAFQTQKPLKSTSLSLFYKKVYRLAYLRLNTLCERLLSEHPELEHIIWTLFQHTLQNEYELMRDRHLDQIMMCSMYGICKVKNIDLKFKIIVTAYKDLPHAVQETFKRVLIKEEEYDSIIVFYNSVFMQRLKTNILQYASTRPPTLSPIPHIPRSPYKFPSSPLRIPGGNIYISPLKSPYKISEGLPTPTKMTPRSRILVSIGESFGTSEKFQKINQMVCNSDRVLKRSAEGSNPPKPLKKLRFDIEGSDEADGSKHLPGESKFQQKLAEMTSTRTRMQKQKMNDSMDTSNKEEK"}}}
{"variants_of": "B1", "experiment": "co-immunoprecipitation (IP T7, western blot DNMT3b), band intensity given", "conditions": "with DNMT3b, MDA-MB-453 cells"}
{"variant": "chain 1 T596A", "response": 132}
{"variant": "chain 1 S715D S724D", "response": 10}
{"variants_of": "B2", "experiment": "co-immunoprecipitation (IP T7, western blot Rb), band intensity given", "conditions": "with Retinoblastoma protein (Rb), MDA-MB-453 cells, cell lysates (800 ug)"}
{"variant": "chain 1 T596A", "response": 22.8}
{"variant": "chain 1 S715D S724D", "response": 0.09}
